In PMC12000561 one finds Kd data, which are given here for 2 substances.

The data set deals with MUTYH WT (MBP fusion) (Homo sapiens). As to the kind of experiment: EMSA. Conditions: EMSA: DNA mix 40 mM Tris pH 7.6, 2 mM EDTA, 200 mM NaCl (printed '200 M'), 20% glycerol, 0.2 mg/ml BSA, 2 mM DTT, 20 pM duplex, mixed 1:1 with enzyme in 20 mM ….

Turning to Duplex 2 THF:OG (product analog), 30 bp, where the note is “upper limit estimate, THF (abasic analog) opposite 8-oxoguanine”, the Kd was < 10 pM.

Under “table unit header missing, 2'-fluoro-2'-deoxyadenosine opposite 8-oxoguanine”, “Duplex 2 fA:OG (substrate analog), 30 bp” gave a dissociation constant Kd of 32 pM.
